In patent US20220332804A1 (CSL INNOVATION, published 2022) one finds Kd data, which are given here for 1 molecule.

Substitutions are numbered along the chain they refer to.

Common to all, as to test: SPR, antibody captured, C2 as analyte;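 note: biacore SPR at 37 °C, anti-C2 mAbs captured via goat anti-human IgG on CM5 chips, double-referenced sensorgrams fit to a 1:1 kinetic or steady-state model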
On the technique in general: Surface plasmon resonance follows binding to a sensor surface in real time, without labels.

The target of assay [1] is T1, human C2 R719A (human, UniProt P06681 21-752).
T1 sequence: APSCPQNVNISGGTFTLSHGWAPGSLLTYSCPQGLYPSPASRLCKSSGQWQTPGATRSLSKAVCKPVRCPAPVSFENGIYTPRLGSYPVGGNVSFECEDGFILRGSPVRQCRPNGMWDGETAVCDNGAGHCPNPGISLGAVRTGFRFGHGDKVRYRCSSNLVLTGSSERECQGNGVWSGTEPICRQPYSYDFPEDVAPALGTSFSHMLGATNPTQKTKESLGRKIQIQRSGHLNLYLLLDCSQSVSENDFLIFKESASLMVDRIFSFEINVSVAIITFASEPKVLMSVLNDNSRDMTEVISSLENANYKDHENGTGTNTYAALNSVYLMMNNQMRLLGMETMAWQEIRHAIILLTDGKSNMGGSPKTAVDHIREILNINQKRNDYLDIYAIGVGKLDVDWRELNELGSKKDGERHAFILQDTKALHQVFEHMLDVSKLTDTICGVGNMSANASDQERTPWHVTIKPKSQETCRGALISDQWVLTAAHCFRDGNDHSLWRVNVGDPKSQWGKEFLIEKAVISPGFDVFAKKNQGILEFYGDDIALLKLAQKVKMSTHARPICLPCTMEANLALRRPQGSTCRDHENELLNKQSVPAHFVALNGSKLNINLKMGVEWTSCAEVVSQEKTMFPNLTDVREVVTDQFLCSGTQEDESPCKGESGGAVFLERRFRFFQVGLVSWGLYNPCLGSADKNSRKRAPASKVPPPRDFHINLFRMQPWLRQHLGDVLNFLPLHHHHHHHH

Assay [2] concerns the target T2, human C2 V465A (human, UniProt P06681 21-752).
T2 sequence: T1 sequence with V445A, A699R

Assay [3] concerns the target T3, human C2 E450A (human, UniProt P06681 21-752).
T3 sequence: T1 sequence with E430A, A699R

For assay [4], the target named is T4, human C2 Q447A (human, UniProt P06681 21-752).
T4 sequence: T1 sequence with Q427A, A699R

B1: RF16-226 (antibody, human IgG4 S228P, lambda)
heavy: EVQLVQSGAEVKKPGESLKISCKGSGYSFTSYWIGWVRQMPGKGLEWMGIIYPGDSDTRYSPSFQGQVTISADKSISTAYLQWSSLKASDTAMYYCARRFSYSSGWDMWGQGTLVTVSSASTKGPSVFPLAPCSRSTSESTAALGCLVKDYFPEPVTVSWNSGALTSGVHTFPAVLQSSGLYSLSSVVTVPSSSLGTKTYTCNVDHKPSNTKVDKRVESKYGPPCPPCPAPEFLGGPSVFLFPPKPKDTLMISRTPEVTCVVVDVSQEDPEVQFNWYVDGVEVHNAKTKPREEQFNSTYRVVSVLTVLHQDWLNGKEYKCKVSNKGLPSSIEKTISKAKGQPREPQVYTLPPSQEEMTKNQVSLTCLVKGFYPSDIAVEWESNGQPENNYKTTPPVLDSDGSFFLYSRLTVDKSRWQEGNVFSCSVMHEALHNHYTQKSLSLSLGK
light: SYELTQPPSVSVSPGQTARITCSGDALTSKYVAWYQQKSGLAPLLVIYEDTRRPSGIPAKFSGSSSGSVATLTISGAHGDDEADYYCYSTDASGHQRVFGGGTKLTVLSQPKAAPSVTLFPPSSEELQANKATLVCLISDFYPGAVTVAWKADGSPVKAGVETTKPSKQSNNKYAASSYLSLTPEQWKSHRSYSCQVTHEGSTVEKTVAPTECS
notes: pH-dependent anti-C2 antibody from a phage display library; also called WT
Turning to B1, the dissociation constant Kd (as a rule, the equilibrium constant for the complex coming apart) in assay [1] was found to be 8.5 nM; in assay [2], 17.1 nM; in assay [3], 4.2 nM; in assay [4], 5.4 nM.
